Laboratory results reported in patent US20050123936A1, “Method, composition, and kit to design, evaluate, and/or test compounds that modulate regulatory factor binding to nucleic acids” (priority 2003, published 2005).
Entries after “also recorded” stand apart in the source; their conditions may differ. Ends that are not written are not given here.

Tests used:
[1] = biological target: T1, Exd (Drosophila melanogaster, UniProt P40427); experiment: Example 7 EMSA: recruitment of Exd by linker compounds; assay type: binding; settings: for positioning of the test compound with respect to its hydrophobic docking site on the surface of Exd: short linkers (<4 Å when fully extended); for ability to recruit Exd: 4° C.
T1 construct: comprising the homeodomain and the extended fourth helix (residues 238-324); made in house
T1 sequence (P40427 238-324): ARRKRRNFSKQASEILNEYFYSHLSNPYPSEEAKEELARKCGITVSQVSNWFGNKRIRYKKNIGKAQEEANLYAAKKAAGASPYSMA
Protocol: The assays were performed with 50 nM of the conjugate pre-incubated with target DNA (thus to bind the anchor moiety to the target nucleic acid) followed by the addition and incubation with Exd.
To determine the effects of longer linker on binding, the ability of compounds using linkers 1, 2 and 4 to recruit Exd at three different temperatures was investigated.

[2] = biological target: TGGTCA matched site on 250-bp EcoRI/PvuII restriction fragment from plasmid pDEH9; experiment: Quantitative DNase I footprint titration, matched site; assay type: binding; settings: 12 h at 22° C., TKMC buffer pH 7.0, read-out: Equilibrium Dissociation Constants Kd, TGGTCA
Protocol: (§1) Quantitative DNaseI footprinting can be used to determine the equilibrium association constants for binding to match and mismatch sites. Footprinting experiments are generally performed on 3′- and/or 5′-^32P end restriction fragments derived from plasmids. 3′-shifted cleavage patterns are consistent with location of the polyamide in the minor groove. Typical reaction conditions are: 10 mM Tris-HCl, 10 mM KCl, 10 mM MgCl2, 5 mM CaCl2, pH 7.0, and 22° C. See Brenowitz et al. (1986). Methods Enzymol. 130:132-181; Fox & Waring (1984) Nucleic Acids Res. 12:9271-9285; and Brenowitz et al. (1986) Proc. Natl. Acad. Sci. U.S.A. 83: 8462-8466.
DNase I Footprinting: Dissociation constants for the DNA binding of compounds 1, 2 and 3 were obtained following published protocols. All reactions were carried out in 400 μL total volume employing 20 kcpm of a 3′-radiolabelled 250-bp restriction fragment from the plasmid pDEH9 (FIG. 1a) (SEQ. ID. NO: 4). […]
FIGS. 1b, 1c, and 1d are quantitative DNAse I footprint titration experiments for compounds 1, 2 and 3 on the 3′^−32 P-labeled 250-bp EcoRI/PvuII restriction fragment from the plasmid pDEH9. […]
The DNA-binding properties of the compounds 1-3 were investigated by quantitative DNase 1 footprinting assays. […]

[3] = test system: TGGCCA mismatch site on 250-bp EcoRI/PvuII restriction fragment from plasmid pDEH9; experiment: Quantitative DNase I footprint titration, mismatch site TGGCCA; assay type: binding
Protocol: as §1
(§2) DNase I Footprinting: Dissociation constants for the DNA binding of compounds 1, 2 and 3 were obtained following published protocols. All reactions were carried out in 400 μL total volume employing 20 kcpm of a 3′-radiolabelled 250-bp restriction fragment from the plasmid pDEH9 (FIG. 1a) (SEQ. ID. NO: 4). No carrier DNA was used in the equilibration, and the solutions were allowed to equilibrate for 12 h at 22° C. in TKMC buffer (10 mM TRIS, 10 mM KCl, […], 5 mM CaCl2 pH 7.0) prior to the DNase I digestion. Reaction products (8 kcpm) were resolved on denaturing 8% polyacrylamide sequencing gels run at 55 W.
(§3) FIGS. 1b, 1c, and 1d are quantitative DNAse I footprint titration experiments for compounds 1, 2 and 3 on the 3′^−32 P-labeled 250-bp EcoRI/PvuII restriction fragment from the plasmid pDEH9. Lane 1: Intact DNA. Lane 2: A-reaction. Lane 3: G-reaction. Lane 4: DNAse 1 standard.
(§4) The DNA-binding properties of the compounds 1-3 were investigated by quantitative DNase 1 footprinting assays. The equilibrium binding constants of each of the compounds for a matched versus three single base pair mismatch sites is compiled in Table 1. The lower strand sequence is shown in the header. Mismatched base pairs are underlined. The residue under the YPWM peptide is in bold. Relative specificities are given in square brackets.

[4] = test system: TGGGCA mismatch site on 250-bp EcoRI/PvuII restriction fragment from plasmid pDEH9; experiment: Quantitative DNase I footprint titration, mismatch site TGGGCA; assay type: binding
Protocol: as §1, §2, §3, §4

[5] = test system: AGCTCA mismatch site on 250-bp EcoRI/PvuII restriction fragment from plasmid pDEH9; experiment: Quantitative DNase I footprint titration, mismatch site AGCTCA; assay type: binding
Protocol: as §1, §2, §3, §4

[6] = biological target: T2, extradenticle (Exd) protein (residues 238-324) (Drosophila melanogaster, UniProt P40427); experiment: EMSA: recruitment of Exd to its cognate DNA site by polyamides 1-3; assay type: binding; settings: saturating 50 nM compound; Exd 0-100 nM; listed as compound 3
T2 construct: comprising the homeodomain and the extended fourth helix (residues 238-324); made in house
T2 sequence (P40427 238-324): T1 sequence (P40427 238-324)
Source text: Protein expression: Drosophila extradenticle (Exd) protein comprising the homeodomain and the extended fourth helix (residues 238-324), as well as ultrabithorax (Ubx) protein homeodomain (residues 233-313 of the Ubx isoform IVa) were expressed and purified after Passner & Aggarwal. The purified proteins Exd and Ubx were used for EMSA studies as described below.
For the templates, the DNA oligonucleotides depicted in FIGS. 2a, 2b, 2c, and 2d were used, SEQ. ID NOS: 5, 6, 7, and 8, respectively. The DNA upper strand was annealed with the respective matching lower strand and both strands were 5′-labeled with γ-^32P-ATP and polynucleotide kinase, using standard procedures.
Gel-shift experiments: The master mix contained 50% BSA/50% glycerol, reaction buffer (150 mM potassium glutamate, 50 mM HEPES pH 7.0, 1 mM DTT, and 5′-end labeled DNA (^32P) The final concentrations in the samples were 100 ng/μL BSA and 10% glycerol. Polyamides were kept in subdued lighting whenever possible. Upon addition of the polyamide to 1 pM DNA, the samples were incubated at 25 °C. for 30 minutes in a 20 μL reaction. Next, Exd was added to the samples and incubated for 1 hour at 4° C. A 9% acrylamide/3% glycerol gel was pre-run for 15 min prior to loading. In each lane 15 μL of a 20 μL reaction were loaded while the gel was running to prevent the samples from being diluted. The gels were run at 4° C./185 V. Gels were dried, exposed to a phosphorimager screen, and visualized using a Molecular Dynamics phosphorimager.
FIGS. 3a and 3b: EMSA studies with polyamides 1-3, Exd and Ubx. In FIG. 3a, each polyamide binds and decreases the mobility of free DNA (lanes 2-18). […] In lanes 2-6,8-12, 14-18, Exd was added in following concentrations: 0, 3, 10, 30, 100 nM. Lanes 19 and 20 contained DNA bearing the Exd-Ubx binding site that was used in X-ray crystal structure determination (see methods above for sequence). In the reaction shown in lane 20, 275 nM Ubx and 30 nM Exd were incubated with DNA. […]

[7] = biological target: T3, Extradenticle (Exd), homeodomain plus extended fourth helix (Drosophila) (UniProt P40427); experiment: EMSA; settings: apparent, with polyamide-FYPWM conjugate
T3 sequence: T1 sequence (P40427 238-324)

[8] = biological target: T4, Drosophila extradenticle (Exd) protein comprising the homeodomain and the extended fourth helix (residues … (Drosophila, UniProt P40427 238-324)); experiment: EMSA (gel shift), 32P-labelled duplex DNA pre-bound with 50 nM compound 3, Exd titrated, 4 °C
T4 sequence (looked up): T1 sequence (P40427 238-324)
Protocol: (§5) Upon addition of the polyamide to 1 pM DNA, the samples were incubated at 25 °C. for 30 minutes in a 20 μL reaction. […] A 9% acrylamide/3% glycerol gel was pre-run for 15 min prior to loading. In each lane 15 μL of a 20 μL reaction were loaded while the gel was running to prevent the samples from being diluted. The gels were run at 4° C./185 V. Gels were dried, exposed to a phosphorimager screen, and visualized using a Molecular Dynamics phosphorimager.
(§6) A 47-base-pair duplex DNA with one cognate site was incubated with saturating concentrations (50 nM) of each compound.

[9] = biological target: T4, Drosophila extradenticle (Exd) protein …; experiment: EMSA, Exd on DNA with and without compound 2
Protocol: (§7) The gels were run at 4° C./185 V. Gels were dried, exposed to a phosphorimager screen, and visualized using a Molecular Dynamics phosphorimager.
as §6

[10] = biological target: T4, Drosophila extradenticle (Exd) protein …; experiment: EMSA, compared with Exd on the Ubx-DNA complex
Protocol: as §5, §6

[11] = biological target: T4, Drosophila extradenticle (Exd) protein …; experiment: EMSA, recruitment of Exd to its cognate DNA site by DNA-bound compound 2 compared with Ubx
Protocol: as §5, §6

[12] = biological target: T4, Drosophila extradenticle (Exd) protein …; experiment: EMSA, Exd titrated on the DNA/compound 2 binary complex (ternary complex), 4 °C; Exd (residues 238-324) on the DNA/compound 2 complex, EMSA
Protocol: as §7, §6

[13] = biological target: T4, Drosophila extradenticle (Exd) protein …; experiment: EMSA, conjugate pre-incubated with target DNA, then Exd
[14] = relative to matched site TGGTCA

Linker 7: Example 7 polyamide-FYPWM conjugate with linker 7, no lysine residue (also: conjugated to polyamide via linker 7)
positioning of the test compound with respect to its hydrophobic docking site on the surface of Exd [1]: do not optimally position the test compound

Cmpd 3 (FYPAAKG)
Kd [2]: 0.86 ± 0.32 nM
Relative specificity (square brackets), TGGCCA [3, 14]: 14
Kd ([3]; single base pair mismatch site, 22° C., TKMC buffer, read-out: Equilibrium Dissociation Constants Kd, TGGCCA): 12 ± 5 nM
Relative specificity (square brackets), TGGGCA [4, 14]: 116
Kd ([4]; single base pair mismatch site, 22° C., TKMC buffer, read-out: Equilibrium Dissociation Constants Kd, TGGGCA): ≥ 0.1 nM
Relative specificity (square brackets), AGCTCA [5, 14]: 16
Kd ([5]; single base pair mismatch site, 22° C., TKMC buffer, read-out: Equilibrium Dissociation Constants Kd, AGCTCA): 14 ± 5 nM
ability to recruit Exd to its cognate DNA site (Exd binding) [6]: No binding was observed; also recorded: Neither compound 3 nor 1 showed any ability to recruit Exd
ability to stabilize Exd binding to the adjacent cognate DNA site (TGAT) ([1]; 50 nM conjugate pre-incubated with target DNA, data not shown): Neither the parent polyamide lacking the YPWM hook, nor the polyamide bearing an altered hook (FYPAAK) (SEQ. ID. NO: 14) was able to stabilize Exd binding

Linker 2: Example 7 polyamide-FYPWM conjugate with linker 2, 10-atom linker, ~11 Å (FYPWMK; also: conjugated to polyamide via linker 2)
ability to recruit Exd [1]: recruit Exd effectively

50 bp duplex with single optimal polyamide site and adjacent Exd site (Example 7)
Kd ([7]; linker 1 (PEG), 4 C, much reduced at higher temperature): 0.6 nM
Kd ([7]; linker 4, 4 C, less than 5-fold decrease at 37 C): 0.08 nM

Linker 6: Example 7 polyamide-FYPWM conjugate with linker 6, no lysine residue (not fully specified (C-terminus); also: joined via linker 7 (no lysine) to hairpin polyamide)
ability to recruit Exd in comparison to the compound using linker 5 ([1]; absence of the lysine residue): did not appreciably alter

Linker 1: Example 7 polyamide-FYPWM conjugate with linker 1, defined 28-atom polyethylene glycol linker, ~33 Å (FYPWMK; also: conjugated to polyamide via linker 1)
ability to recruit Exd [1]: recruit Exd effectively
binding affinity (Exd recruitment) ([1]; higher temperatures (23° C., 37° C.)): dramatically reduced binding affinity

Linker 4: Example 7 polyamide-FYPWM conjugate with linker 4, 7-atom linker, ~7 Å (FYPWMK; also: conjugated to polyamide via linker 4)
ability to recruit Exd [1]: recruit Exd effectively

Linker 8: Example 7 polyamide-FYPWM conjugate with linker 8, lysine linker, ~2.5 Å (FYPWMK; also: conjugated to polyamide via linker 8)
positioning of the test compound with respect to its hydrophobic docking site on the surface of Exd [1]: do not optimally position the test compound

B1: Compound 3: hairpin polyamide 1 conjugated to Ac-Phe-Tyr-Pro-Ala-Ala-Lys-Gly- (peptide)
peptide: Ac-FYPAAKG
modifications: not fully specified (C-terminus); printed as Ac-Phe-Tyr-Pro-Ala-Ala-Lys-Gly-; also: C-terminal Gly amide-bonded to propylamine side chain of polyamide 1
notes: Non-functional (Trp-Met to Ala-Ala) control conjugate; also called conjugate 3; polyamide 3
binding result [8]: no binding (tested: 100 nM)

B2: Compound 2: hairpin polyamide 1 conjugated to Ac-Phe-Tyr-Pro-Trp-Met-Lys-Gly- (peptide)
peptide: Ac-FYPWMKG
modifications: not fully specified (C-terminus); printed as Ac-Phe-Tyr-Pro-Trp-Met-Lys-Gly-; also: C-terminal Gly amide-bonded to propylamine side chain of polyamide 1
notes: Peptide-polyamide conjugate; The peptide carries the Hox YPWM motif; also called conjugate 2; polyamide 2
fold improvement of the affinity of Exd for its cognate site against DNA alone [9]: ≥ 200 fold
fold of Kd of Exd against that for the DNA-Ubx complex [10]: 2 fold
fold lower concentration required to recruit Exd, against its natural Hox partner (Ubx) [11]: 20 fold
Kd [12]: 4.4 nM

FYPAAK (also: conjugated to hairpin polyamide, linker not given here) [polyamide bearing an altered hook (FYPAAK)]
binding result [13]: no binding (tested: 50 nM conjugate)
